Entries after “also recorded” stand apart in the source; their conditions may differ.
Assays:
[1] = tested on: RA/Bt2cAMP-treated F9 cells; assay: DiI-HDL uptake by laser scanning confocal fluorescence microscopy; assay type: cell-based, mouse; settings: DiI-HDL 1 μg/ml, 2-4 h at 37° C., LDL 40 μg/ml, RAP 1 μM
Protocol: Cells were plated into gelatin-coated wells of 8-well plastic chamber slides (Nalge Nunc, Naperville, Ill.) (4×10^4 cells/cm^2) and incubated at 37° C., 5% CO2 for 2 hours. The cells were washed with serum-free DMEM and incubated in serum-free DMEM containing ITS (insulin 5 μg/ml, transferrin 5 μg/ml, sodium selenite 5 ng/ml, Boehringer Mannheim, Germany), penicillin, and streptomycin for 18 hours at 37° C., 5% CO2. Prior to addition of DiI-HDL, the cells were incubated with serum-free DMEM containing unlabeled HDL3 (40 μg/ml) or RAP (1 μM) for 0.5 hour at 37° C., 5% CO2. DiI-HDL (1 μg/ml) in serum-free DMEM or in serum-free DMEM containing unlabeled HDL3 (40 μg/ml) or RAP (1 μM) was then incubated with the cells for 2-4 hours at 37° C., 5% CO2. The cells were washed three times with Dulbecco's phosphate buffered saline (dPBS), fixed in 3% formaldehyde in dPBS for 20 minutes at room temperature. […]
Cells were plated into gelatin-coated wells of plastic chamber slides (Nalge Nunc, Naperville, Ill.) (4×10^4 cells/cm^2) and incubated at 37° C., 5% CO2 for 2 h. […] The cells were washed with dPBS, fixed in 3% formaldehyde in dPBS for 20 min at 25° C. and analyzed using a BiORad MRC1024 laser scanning confocal microscope.

[2] = tested on: RA/Bt2cAMP-treated F9 cells; assay: DiI-HDL uptake by fluorescence-activated cell (FAC) scanning; assay type: cell-based, mouse; settings: DiI-HDL 1 μg/ml, 37° C.; competitors preincubated; apolipoproteins and RAP 1 μM, apoE 0.25 μM, heparin 80 μM, IgGs 200 μg/ml, heparinase I 10 U/ml
Protocol: Untreated and RA/Bt2cAMP-treated F9 cells (1-1.5×10^5 cells/cm^2) were grown for 18 hours in serum-free medium (DMEM, ITS, penicillin, and streptomycin). After washing the cell layers with the same serum-free medium, apoE-free DiI-HDL was added to a final concentration of 1 μg/ml and incubated for 1-2 hours at 37° C., 5% CO2. For competition experiments, competitors were added in serum-free medium and incubated for 0.5 hours at 37° C., 5% CO2 prior to the addition of the DiI-HDL. After the incubation, the medium was removed, cell layers washed with serum-free medium and the cells released with a 0.5 mg/ml trypsin-0.53 mM EDTA solution (Mediatech). The cells were then pelleted by centrifugation at 180×g and resuspended in DMEM. Twice more, the cells were pelleted by centrifugation at 180×g, and resuspended in dPBS. The cells were then subjected to FAC sorting on a FACStarplus instrument (Becton Dickinson, San Jose, Calif.).
RA/Bt2cAMP-treated and -untreated F9 cells (1-1.5×10^5 cclls/cm^2) were grown for 18 h in SFM. After washing the cell layers with SFM, DiI-HDL or DIO-LDL was added to a final concentration of 1 μg/ml and incubated for 2 h at 37° C., 5% CO2. For competition experiments, competitors (HDL, HDL2, HDL3 and their corresponding apoE-free forms), LDL, oxidized LDL, VLDL, §-VLDL, Lp(a) ([…]), apoA-I (28.3 μg/ml, 1 μM), apoA-II (I 7.3 μg/ml, 1 μM), apoC-I (6.6 μg/ml, 1 μM), apoC-III (8.8 μg/ml, 1 μM), apoJ (70 μg/ml, 1 μM), ovalbumin (45 μg/ml, 1 μM), RAP (39 μg/ml, 1 μM), apoE (8.5 μg/ml, 0.25 μM), heparin (80 μM, 250 U/ml) or IgGs (200 μg/ml) were added in SFM and incubated for 45 min at 37° C., 5% CO2 prior to the addition of the fluorescent lipoproteins. After the incubation, the medium was removed, cell layers were washed with SFM and the cells were released with trypsin-EDTA-proteinase K. The cells were washed once with DMEM, twice with dPBS, then subjected to FAC scanning on a FACStar Plus instrument (Becton Dickinson, San Jose, Calif.). Plotted data are from gated cells having fluorescence intensity values greater than the autofluorescence values of 99% of unlabeled cells. For some experiments, cell layers were treated with hepaninase I (10 U/ml) for 2 h prior to the addition of the DiI-HDL.

B1: RAP: 39 kDa chaperone protein that inhibits ligand binding to LDLR family members; recombinant human RAP (protein, UniProt P30533 35-357, looked up)
Alpha-2-macroglobulin …: YSREKNQPKPSPKRESGEEFRMEKLNQLWEKAQRLHLPPVRLAELHADLKIQERDELAWKKLKLDGLDEDGEKEARLIRNLNVILAKYGLDGKKDARQVTSNSLSGTQEDGLDDPRLEKLWHKAKTSGKFSGEELDKLWREFLHHKEKVHEYNVLLETLSRTEEIHENVISPSDLSDIKGSVLHSRHTELKEKLRSINQGLDRLRRVSHQGYSTEAEFEEPRVIDLWDLAQSANLTDKELEAFREELKHFEAKIEKHNHYQKQLEIAHEKLRHAESVGDGERVSRSREKHALLEGRTKELGYTVKKHLQDLSGRISRARHNEL
For B1, the “uptake of DiI-HDL (cell staining)” value [1] was “completely blocked” and the “DiI-HDL uptake in presence of competitor” value [2] was “could be blocked; also recorded: completely blocked”.
